Test results from PMC5489075, “Purification and characterisation of the fission yeast Ndc80 complex” (Protein Expression and Purification, 2017).

Biological target: T1, Ndc80-eGFP holo complex (S. pombe, UniProt Q10198 1-624; Q10173 1-441; Q9UST6 1-198; Q10430 1-238)
T1 construct: Ndc80, S. pombe, full-length 624 a.a; Nuf2, S. pombe, full-length 441 a.a; Spc24, S. pombe, full-length 198 a.a; Spc25, S. pombe, full-length 238 a.a; also called Ndc80 holo complex; Ndc80 complex; source: E. coli BL21 (DE3) RIL; two sub-complexes purified, mixed, purified (Ni-TED, TEV cleavage, Superose 6 size-exclusion chromatography); not shown: 6His-Z, N-terminal, cleaved; Z-tag, N-terminal, …
T1 sequence (Q10198 whole entry, chain 1 of 4): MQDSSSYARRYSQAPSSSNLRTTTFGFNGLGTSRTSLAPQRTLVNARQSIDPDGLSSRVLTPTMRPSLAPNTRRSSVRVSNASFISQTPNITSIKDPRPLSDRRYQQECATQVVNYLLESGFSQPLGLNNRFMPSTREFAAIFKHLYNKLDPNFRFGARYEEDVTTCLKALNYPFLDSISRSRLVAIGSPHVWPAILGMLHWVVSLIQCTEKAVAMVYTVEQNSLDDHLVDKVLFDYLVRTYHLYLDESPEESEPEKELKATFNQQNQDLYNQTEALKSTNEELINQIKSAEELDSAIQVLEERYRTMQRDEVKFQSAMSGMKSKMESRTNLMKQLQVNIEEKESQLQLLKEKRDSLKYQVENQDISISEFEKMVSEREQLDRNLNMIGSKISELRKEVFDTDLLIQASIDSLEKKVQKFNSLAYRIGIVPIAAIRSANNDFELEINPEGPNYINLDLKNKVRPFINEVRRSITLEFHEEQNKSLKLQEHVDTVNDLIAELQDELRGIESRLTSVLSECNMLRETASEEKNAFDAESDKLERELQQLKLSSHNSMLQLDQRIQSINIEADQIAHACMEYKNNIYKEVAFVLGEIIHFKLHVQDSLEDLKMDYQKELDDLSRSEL
T1 sequence (Q10173 whole entry, chain 2 of 4): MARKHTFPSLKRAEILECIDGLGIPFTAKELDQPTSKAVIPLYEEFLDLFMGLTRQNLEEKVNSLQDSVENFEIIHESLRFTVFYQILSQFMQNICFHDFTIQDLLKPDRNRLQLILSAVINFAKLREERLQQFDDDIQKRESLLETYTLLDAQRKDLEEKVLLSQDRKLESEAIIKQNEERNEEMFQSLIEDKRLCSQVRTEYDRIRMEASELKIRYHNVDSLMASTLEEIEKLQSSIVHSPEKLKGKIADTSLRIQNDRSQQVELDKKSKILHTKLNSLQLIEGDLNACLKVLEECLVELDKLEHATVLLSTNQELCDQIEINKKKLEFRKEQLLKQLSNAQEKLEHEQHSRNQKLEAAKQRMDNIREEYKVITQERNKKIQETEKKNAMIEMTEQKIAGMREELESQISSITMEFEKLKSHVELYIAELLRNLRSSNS
T1 sequence (Q9UST6 whole entry, chain 3 of 4): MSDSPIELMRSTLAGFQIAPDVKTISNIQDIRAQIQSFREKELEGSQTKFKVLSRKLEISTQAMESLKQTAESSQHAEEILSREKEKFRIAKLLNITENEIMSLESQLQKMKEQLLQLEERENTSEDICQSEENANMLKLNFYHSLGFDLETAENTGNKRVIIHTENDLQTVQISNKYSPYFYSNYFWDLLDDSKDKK
T1 sequence (Q10430 whole entry, chain 4 of 4): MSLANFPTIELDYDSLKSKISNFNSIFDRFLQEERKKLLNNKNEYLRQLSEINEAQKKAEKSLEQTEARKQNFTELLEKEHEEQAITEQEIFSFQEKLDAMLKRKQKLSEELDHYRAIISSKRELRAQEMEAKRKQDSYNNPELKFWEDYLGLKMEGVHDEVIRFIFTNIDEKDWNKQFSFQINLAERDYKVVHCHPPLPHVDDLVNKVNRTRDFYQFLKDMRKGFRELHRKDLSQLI
Experiment: TIRF microscopy; 100 pM Ndc80-eGFP holo complex on dynamic Cy5-microtubules with 10 nM unlabelled Dis1 or 20 nM unlabelled Mal3; read-out is the place of the eGFP signal (lattice or growing plus end); BRB80 with 85 mM KCl, 30 °C
Conditions: both partners purified

binding result: binds
B1: Mal3 (natural protein, S. pombe, UniProt Q10113 1-308, looked up)
chain: MSESRQELLAWINQVTSLGLTRIEDCGKGYAMIQIFDSIYQDIPLKKVNFECNNEYQYINNWKVLQQVFLKKGIDKVVDPERLSRCKMQDNLEFVQWAKRFWDQYYPGGDYDALARRGNRGPANTRVMNSSAGATGPSRRRQVSSGSSTPSMTKSSANNNNVSSTANTAAVLRAKQAQQQITSLETQLYEVNETMFGLERERDFYFNKLREIEILVQTHLTTSPMSMENMLERIQAILYSTEDGFELPPDQPADLTTALTDHDTNNVAEEAQMTDLKDSETQRVPSAPDFVHARLQSLEVDDDENITF
notes: Mal3, fission yeast EB1 microtubule plus-end tracking protein; also called Mal3/EB1; unlabelled Mal3
